Results on three molecules are retold here after publication PMC8868134, “Molecular Determinants for OMF Selectivity in Tripartite RND Multidrug Efflux Systems” (Antibiotics, 2022).

Experiment [1] concerns the target MexA Q93R variant (Pseudomonas aeruginosa) (UniProt P52477). Briefly: SEC + other: negative-staining EM; Superdex 200 PC 3.2/30 in 10 mM Tris/HCl pH 7.4, 100 mM NaCl, 0.01% NaN3, 0.05% DDM; peak fraction stained with uranyl acetate, single-particle average image.
Experiment [2] has as its target MexB (RND inner membrane transporter) (Pseudomonas aeruginosa) (UniProt P52002). Briefly: BLI; OMF or MexB stabilised in biotinylated non-ionic amphipol (BNAPol) immobilised on streptavidin (SAX) biosensors, MexA as analyte (0-100 uM for OMFs, 0-200 uM for MexB); BLItz device, room temperature; 10 mM Tris/HCl pH 7.4, 100 mM NaCl, 0.01% NaN3, 0.05% DDM; Langmuir 1:1 fit.

The target of experiment [3] is OprM C-terminal deletion variant OprM_(Δ473-485) (Pseudomonas aeruginosa) (UniProt Q51487). The experiment is described as above.
The target of experiment [4] is OprM wild type (outer membrane factor) (Pseudomonas aeruginosa) (UniProt Q51487). The description is as above.
In experiment [5] the target is OprN (outer membrane factor) (Pseudomonas aeruginosa) (UniProt Q9I0Y7). The experiment is described as above.
The target in experiment [6] is TolC (outer membrane factor of E. coli) (Escherichia coli) (UniProt P02930). Described as above.
Experiment [7] has as its target T1, OprM wild type (outer membrane factor) (Pseudomonas aeruginosa, UniProt Q51487 18-485).
T1 construct: OprM, outer membrane factor of MexA-MexB-OprM, Pseudomonas aeruginosa; Stabilised in biotinylated amphipol (BNAPol) for BLI and in MSP1D1/POPC nanodiscs for the tripartite complexes; also called OprMwt; OMF; source: expressed and purified from bacteria
T1 sequence: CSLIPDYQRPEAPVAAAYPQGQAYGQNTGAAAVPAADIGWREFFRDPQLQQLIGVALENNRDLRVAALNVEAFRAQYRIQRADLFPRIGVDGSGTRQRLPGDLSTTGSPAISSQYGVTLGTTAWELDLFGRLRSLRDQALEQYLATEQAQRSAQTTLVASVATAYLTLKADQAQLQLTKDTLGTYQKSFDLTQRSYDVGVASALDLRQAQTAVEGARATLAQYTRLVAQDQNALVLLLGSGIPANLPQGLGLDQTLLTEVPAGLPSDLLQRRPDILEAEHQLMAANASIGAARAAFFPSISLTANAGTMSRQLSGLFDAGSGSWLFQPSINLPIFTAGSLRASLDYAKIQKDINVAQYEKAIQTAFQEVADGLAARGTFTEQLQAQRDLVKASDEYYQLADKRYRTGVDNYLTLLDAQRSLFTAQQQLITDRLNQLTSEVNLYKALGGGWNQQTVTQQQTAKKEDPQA
The experiment is described as above. The conditions noted are these: both partners purified.

“MexA Q93R variant (from UniProt P52477 24-383) (natural protein)”: the stoichiometry N in experiment [1] was 6. Also, the Kd in experiment [2] turned out to be 17.4 µM; in experiment [3] it was 25.7 µM; in experiment [4] it was 32.9 µM; in experiment [5], 26.9 µM; in experiment [6] it was 17.8 µM. The koff in experiment [2] was determined as 0.003 s⁻¹; in experiment [3] it was 0.00263 s⁻¹; in experiment [4], 0.00266 s⁻¹; in experiment [5], 0.00238 s⁻¹; in experiment [6], 0.00191 s⁻¹. In addition, the kon in experiment [2] was found to be 173 M⁻¹ s⁻¹; in experiment [3] it was 102 M⁻¹ s⁻¹; in experiment [4] it was 81 M⁻¹ s⁻¹; in experiment [5] it was 88 M⁻¹ s⁻¹; in experiment [6], 108 M⁻¹ s⁻¹.

In experiment [3], “MexA wild type (periplasmic adaptor protein of MexA-MexB-OprM) (from UniProt P52477 24-383) (natural protein)” showed a Kd of 44 µM, a koff of 0.00458 s⁻¹ and a kon of 103 M⁻¹ s⁻¹. In experiment [5], this molecule registered a Kd of 20 µM, a koff of 0.00358 s⁻¹ and a kon of 177 M⁻¹ s⁻¹. In experiment [6], this molecule came in with a Kd of 45.8 µM, a koff of 0.0058 s⁻¹ and a kon of 127 M⁻¹ s⁻¹.

B1: MexA wild type (periplasmic adaptor protein of MexA-MexB-OprM) (natural protein)
chain: CGKSEAPPPAQTPEVGIVTLEAQTVTLNTELPGRTNAFRIAEVRPQVNGIILKRLFKEGSDVKAGQQLYQIDPATYEADYQSAQANLASTQEQAQRYKLLVADQAVSKQQYADANAAYLQSKAAVEQARINLRYTKVLSPISGRIGRSAVTEGALVTNGQANAMATVQQLDPIYVDVTQPSTALLRLRRELASGQLERAGDNAAKVSLKLEDGSQYPLEGRLEFSEVSVDEGTGSVTIRAVFPNPNNELLPGMFVHAQLQEGVKQKAILAPQQGVTRDLKGQATALVVNAQNKVELRVIKADRVIGDKWLVTEGLNAGDKIITEGLQFVQPGVEVKTVPAKNVASAQKADAAPAKTDSKG
notes: MexA, periplasmic adaptor protein of the MexA-MexB-OprM efflux system, Pseudomonas aeruginosa; Kept in 0.05% DDM; also called MexAwt; PAP; source: expressed and purified from bacteria
Consider B1, for which, in experiment [7], the affinity, expressed as Kd, was 12 µM; the koff was determined as 0.00215 s⁻¹; the kon stood at 180 M⁻¹ s⁻¹.

As a reminder, the stoichiometry N is the number of molecules, sites or subunits per partner or assembly. What is called Kd is the free concentration of one partner at which half of the binding sites on the other are occupied at equilibrium, for simple one-to-one binding. Read a low Kd as a tighter complex. Broadly, the koff is a measure of how fast the partners let go of each other. A higher koff goes with a short-lived complex. The term kon denotes the second-order rate constant of association. A high value points to fast association.
